Among the data in the NTF2 design screens of Basanta et al. (2020) are protease stability score values, retold here.

This series in a line: protease stability score; higher = more stable; yeast display proteolysis, trypsin and chymotrypsin.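 Further: relative to predicted unfolded state with 0 unfolded-like and 1 meaning tenfold more protease.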
In the case of “DETETAKRFALEMLLHTLRTGDEEDKLRMLDPNARLVIGDKEFWGWKEFKKFVEKESRELRIQDSRIQHVELQGDKLHLDSVIIGQVNGVTVELKVEFVMNKIDGKWRVEEIIVR”, the protease stability score came to 1.34.

With “DETFEDAHKLFKKFWEDMRTGDESEIEKLLDPNDKVHQGEKQTHGREEASRTHQEDIRRVDVFERVHIDHIETQGDFAIIDSTWIIHFDGKRFTRKVIIFLVKINGQWKFHSITMR”, the protease stability score came to 0.71.

In the case of “DETFEWANIAIEHLIHSARTGDEKTFEEMADPDTRFLYNGQIIIGREEVNKMLSTVLREIRLEDVQVKRIEVYDGRVHSDMTRQGEFDGRHFTSKTEFIVHKVDGRWSIKEIRIT”, the protease stability score worked out at 0.89.

In turn, “DETFKEQEKLIERLERVERTGDWKEWERLADPNVRMDIDGVEIIGMEMVTEFILREMRHLGVTRIRIEIKEIRVIGDKIRIDGQIQQGNKETRFILIVSKIDGRWRLEESYVH” displayed a protease stability score of 1.06.

Turning to “DETHEEHNRFAEEYVHALHTGDEDRLRELMDPNVRFILIIDGKEVRLHGWELLLRVIREFWERFKNIRIFIRDIDLQGEKIRLETEVNVDGVDEHWRINMVVVNGRIKSLIIEQR”, the protease stability score was found to be 2.32.

On to “DETHELIEFLLKEMIEAWKTGNEEKIMELFDPNVRLDIGDKHYHGREEVVRAMHEYRRRLGAKHITLHDHSVVNGVIHIDTVVNQGDKEVTIHIHIHIVDGKIKRIEIRLK”, for which the protease stability score worked out at 2.07.

For “DETHEMNEEFLRLLIHAWRTGDEDLLLHLADPNVKVNVGEFHHHGREKFSEWLKHIRFDDMRVHDMRIFDGVAHFITESDVTFNGRRRRVHVRIVVEKVNGKWRLKLFEEE”, the protease stability score amounted to 2.66.

“DETHKDAERALEIEIRDFVTGDFKSMQRLADPNVKIEVGDKHWHGREEFEKLVKEVIDQFPNMRLDVRVTHWELQGEKLIMRTEVNEHFDGVTFKHETHIIIRKINGRWFLTSVHIQ” registered a protease stability score of 1.36.

In turn, “DETHKLLEDLTRLFWELTHTGDEEIVEELADPHVRSEINGKERHGREEHVKAWREWRIERMTLRSVSVINGQMSIDGEIVLKIGDKRIETRIEIRIHIVDGVMKSVKIHLE” came in with a protease stability score of 0.937.

Sequence “DETHRDMEEALRLFVRLLETGNEEILSKLVDPHVKIDFENHQHIGMEDWMKFMHHIRLDSMRIDDFKLIGDKARSDTTLDGNVNGRHFKFKTWIVAQKVDGRWLEHSVEYR” displayed a protease stability score of 0.885.

“DETHVQMERFIEEHIKSHITGDEDYLRENIDPEARVVIDGQTYHGWKAIKDAIDQWRVTDMRIRHVRVQGEKVDIHGRLHVDVNGRNIDLEVRIIVTKVDGRWVVDQLIFN” yielded a protease stability score of 1.16.

Consider “DETKDDSDWAVELWEKLFKTGDEHLHERLADPHTRKEVGDKEFHGRELILKQFVEFVEKVKNIQLEFTHVKEQGEKVEMDTTLRIDGVRIRTKMIALKIDGVWLVKIIHIE”, for which the protease stability score is 0.964.

The sequence “DETKEAFDRAIEKLSRWMFTGDEDKVDHLMDPDVRIEQGDKELHGMEDARRYLTEIRVKVRDMKITHMRIYDGRIDIDGETHLEVKVGDKHLHIDTRVYIDSYKVDGRWFFHEIRIK” gave a protease stability score of 0.98.

“DETKEAIDRLFEVIHRMMITGDEHEFMKLVDPNVKVIQGEKIYHGREVIVNMLREILKWAGVENIQSHLDPERVHIQGDKLLVRGRLELRIGDKSEERDVEFVVVKVDGRWLIRVWKIE”: the protease stability score came to 2.74.

Consider “DETKEDTNRWIEHELRALKTGNWKEQFKNLDPNVRMHLHVGDKNKDLHGREKVTTELRRLFEEFGIKHIHLTNFEVQGDKIHLIMHIEVDGRHIELHLIVTKIDGKWHMESIEMHFR”, for which the protease stability score is 0.866.

The sequence “DETKEHVHNWMELVVHWYETGDEEEILKNADPNVRTIFNGVDYHGWEHLEEILKKIRHFFKNARVEIERIEIQGDKLILDVNVEINGQRDTLHIHVKVVDGVMKNLEIRHG” registered a protease stability score of 1.59.

For “DETKEKVRIALELLETLHRTGDEDKFLELADPHYQLHINGQTVIGRETIYELLVRFLHHLGATSEVRIRSVDWQGDKIIVDMRLHFRVGDKSFEIQVHIYILKVNGKWLIESIEIR”, the protease stability score worked out at 1.68.

The sequence “DETKEQSDEFIRIWVKARRTGDEHKLRRLIDPNVRVLINGKDLIGMDRALEIIEMFRKEFGIDHMHFTVRHVDIFNGVAISDFKVEINFNGREHEFTTHLVNLKIDGVWHTHSMEFH” registered a protease stability score of 0.546.

Turning to “DETKEYAKEMFEILKESLETGDWKKIRHLADPNVRLHIGEFEHHGWKEFIHFFREFLHHLRLEDVETKHIEVQGDKMILRTTLHLRQGDKSRDLDVIIIYRKIDGRWMLHSVEIR”, the protease stability score came out at 1.4.

In turn, “DETKHHHDRLFEEEAKAIATGDWEKLKELLDPHVRFEVGNKEIHGMETVLEEIERDLKRLGVTKQEVRIVIDKVDIQGEKIVSDFTLRLHFDGVTIEHKVHVIEVKIDGRWLIQSIRIE” gave a protease stability score of 1.53.

On to “DETKQETDRLVKMMLHAITTGDEKFIHHLIDPNVRLEVGDKSFHGREDAFEMLRKEWEDLGVKVYKPETYKSQGDWVHFHGKEHVGDKEIELNIHIHVVDGKIKFIRIEIH”, for which the protease stability score came to 1.2.

In the case of “DETNKTLKEVFRELVHSLFTGDEERLTELADPHARFHQGEKELHGREEISKEMSRMIERADHVKIILTHMEVQGDKIIIEGHLEIRVDGRRIDVSTTLILHKVNGRWFITEIHII”, the protease stability score amounted to 0.241.

As for “DETQELAEEIVRKMIENWLTGNEEELHKMADPHVRVHINGVDLHGREVWEKWVHDELEKIPGIRREFELKRLEIYGDYIDIDGILILTFNGRKHTHKVRIHLHIVDGKLHRLEIRNK”, the protease stability score was found to be 1.28.

For the sequence “DETREESYEFLWKLIHNWQTGNEDRLDELIDPHVRLVVGDKNHHGREELIELIREILERADHLRMRMRHFRVQGDKAEVDTRLQMEIGDKSIDTETHVRIIVVDGRVKYLEYEIK”, the protease stability score was 0.459.

Sequence “DETREEVYEMAVRILENEITGDWKKLYDLVDPDTRLDINGRHVIGREEMIKLFEWWLKHIRIKEIRLSHVEAVNGKADLKSNVHGTIDGVEHDVRRTIHIDIVDGRVKRIEVRTR” gave a protease stability score of 1.29.

On to “DETREHTEHIMNIILHALHTGDEHLIRDMIDPHVRWELIIDGQTHNHIGRDEWEKLLEELGIDRIEVILKRFRIFENHSEVKGTIHINGKDADVVIYILVINGKIKEIRIIHV”, for which the protease stability score is 2.19.

On to “DETREIAIKMIELWIHAVKTGDEDRMTELLDPNALLIIGDKKIHGRENLLRFWKRIDHHHLRHIEIKEITFFNGQVEDDGIVEEELRVNGREFEIDSRVLYILKKVDGRWIMRTIEVK”, for which the protease stability score worked out at 1.88.

In the case of “DETRELLDRLWERLVKALRTGDEDHVHDMLDPHVRIEIGDKILHGREALEVLWKRIDHISIHDFKLKRERRFENRIEVDGEVDGIVRIDGRENRHVTDTHYILVKIDGQWLIKTIHIK”, the protease stability score is 2.29.

Sequence “DETRETLERFWHILVRAEKTGDERIFYEMLDPNAQLNVNGRTFHGREILVKIFHEWRVHDSEIREIDIQGDKVDMHVHSDIQVGDKRIRTDMRIIMVKIDGKWLIRTLKVE” had a protease stability score of 2.16.

Sequence “DETRRHTEELFHWLLRAFMTGDFKLSYDNADPDVRFIINGRRDHGRDLYVRDLRHMRVHDSKVNHIHFEFQGDWAVVRVDGHIFGEYDGQHFNLRVEIRIIINKIDGRWSLESVEIRIH” registered a protease stability score of 0.812.

On to “DETSREEEEHARLWTHAWLTGDEELFKKLADPHVKTEIDGRDLIGRDEMTRMFHDLLRELGVKHSTIEEIHIVNGRVEIRISIEVDGRPIKVRIHVEFFNGRVQRIQIRYE”, for which the protease stability score was found to be 0.903.

In turn, “DETTDEMDKSLERFLDVVRTGDEHEDVHLADPHARIEFENRDIHGMKEHASQRIRVMLKFGWEVHIKFRHLRQVDGRLDVRLELRIKFDGVLYHLDTNEYWRKFDGRWVLDSMEFH” registered a protease stability score of 1.24.

Regarding “DETTEDDRRRYEEFLMAEITGDFHLVEKLHDPDVRFVLVIGDKIHIHHGREDVRKWIEHDFRKFKNARIELHDVKAYDGRVEIHGRVQVDGVRFDVHITIIIINGRVKEQRLNIR”, the protease stability score was 2.12.

“DETTEHMVHFFKETLHAIRTGDFKAQEELFDPNARVDVGDYKFHGRETISEWLRRRNEQLGFKHIEIRINHVEYINGKISVIGSVDSDINGVRIRHERREEYVVINGVLTLVRLEHR” yielded a protease stability score of 1.12.
